± gives the standard error.
B1: library; numbered along this chain (parent)
chain: MATDAALRRLLRLHRTEIAVAVDSAFPLLHALADHDVVPEDKFQETLHLKEKEGCPQAFHALLSWLLTQDSTAILDFWRVLFKDYNLERYGRLQPILDSFPKDVDLSQPRKGRKPPAVPKALVPPPRLPTKRKASEEARAAAPAALTPRGTASPGSQLKAKPPKKPESSAEQQRLPLGNGIQTMSASVQRAVAMSSGDVPGARGAVEGILIQQVFESGGSKKCIQVGGEFYTPSKFEDSGSGKNKARSSSGPKPLVRAKGAQGAAPGGGEARLGQQGSVPAPLALPSDPQLHQKNEDECAVCRDGGELICCDGCPRAFHLACLSPPLREIPSGTWRCSSCLQATVQEVQPRAEEPRPQEPPVETPLPPGLRSAGEEVRGPPGEPLAGMDTTLVYKHLPAPPSAAPLPGLDSSALHPLLCVGPEGQQNLAPGARCGVCGDGTDVLRCTHCAAAFHWRCHFPAGTSRPGTGLRCRSCSGDVTPAPVEGVLAPSPARLAPGPAKDDTASHEPALHRDDLESLLSEHTFDGILQWAIQSMARPAAPFPS

Variants of: B1
Assay: AIRE transcriptional activation functional score (insulin promoter-GFP; nonsense median 0, synonymous median 1) (normalised score); higher = higher AIRE activity (more reporter activation)
Details: with insulin promoter-GFP reporter in HEK293
Description: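 Deep mutational scan of full-length human AIRE (codon-optimized cDNA, DT-POPCode NNN libraries over three regions) integrated at a Bxb1 landing pad in HEK293 cells carrying an insulin core promoter-GFP reporter at a Flp-In site. Cells were sorted for the top 10% GFP about 14 days after transfection. Variant frequency log-ratios (select vs non-select, TileSeq) were rescaled so that the nonsense median is 0 and the synonymous median is 1, then averaged over biological replicates.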

Row | Variant | AIRE transcriptional activation functional score
1 | S135A | 2.31 ± 0.099
2 | P163N | 1.73 ± 0.28
3 | P163Q | 1.05 ± 0.86
4 | A31P | -0.0989 ± 0.14
5 | P125V | 1.19 ± 0.25
6 | P357F | 1.27 ± 0.11
7 | P357W | 1.17 ± 0.017
8 | P357G | 0.884 ± 0.26
9 | P357Y | 1.34 ± 0.16
10 | V487H | 0.858 ± 0.48
11 | D439S | 0.93 ± 0.31
12 | D439K | 0.809 ± 0.15
13 | S156V | 1.13 ± 0.6
14 | D288S | 1.24 ± 0.26
15 | L520R | 0.181 ± 0.11
16 | A352D | 1.08 ± 0.031
17 | A352P | 0.925 ± 0.17
18 | D502S | 0.804 ± 0.26
19 | N86M | 1.34 ± 0.48
20 | N86L | 0.306 ± 0.53
21 | K50W | 0.149 ± 0.11

Row | Variant | AIRE transcriptional activation functional score
22 | G112Q | 1.37 ± 0.17
23 | G112P | 1.12 ± 0.67
24 | H48L | 0.44 ± 0.59
25 | D76M | 2.3 ± 0.11
26 | G306T | 1.15 ± 0.14
27 | E359I | 1.14 ± 0.21
28 | R174F | 1.53 ± 0.19
29 | R174V | 0.506 ± 0.34
30 | R174N | -0.393 ± 0.74
31 | G180H | 1.31 ± 0.17
32 | R371P | 0.614 ± 0.2
33 | R371T | 0.753 ± 0.3
34 | P365D | 0.214 ± 0.23
35 | P365T | 0.843 ± 0.34
36 | A265E | 0.963 ± 0.062
37 | A265P | 0.806 ± 0.31
38 | A265W | 0.598 ± 0.075
39 | H14Q | 0.144 ± 0.28
40 | Q182T | 1.69 ± 0.48
41 | Q182Y | 0.181 ± 0.057
42 | G242P | 0.412 ± 0.71

Row | Variant | AIRE transcriptional activation functional score
43 | P124D | 0.6 ± 0.38
44 | F318T | 1.31 ± 0.28
45 | F318M | 1.54 ± 0.031
46 | L327M | 1.3 ± 0.051
47 | H415A | 1.08 ± 0.2
48 | G277P | 0.526 ± 0.28
49 | G240I | 0.539 ± 0.24
50 | P27N | 0.263 ± 0.048
51 | L470Y | 0.549 ± 0.28
52 | L66R | -0.171 ± 0.6
53 | G201Q | 1.05 ± 0.17
54 | G201L | 1.32 ± 0.22
55 | G201N | 1.01 ± 0.12
56 | R378I | 0.795 ± 0.28
57 | K164S | 1.22 ± 0.41
58 | E376P | 1.25 ± 0.16
59 | A21C | 0.675 ± 0.39
60 | L516I | 0.97 ± 0.13
61 | F59P | 0.0711 ± 0.28
62 | I309F | 1.18 ± 0.065
63 | R513Y | 1.28 ± 0.17

Row | Variant | AIRE transcriptional activation functional score
64 | R513K | 0.902 ± 0.11
65 | L122S | 1.44 ± 0.47
66 | L32S | -0.125 ± 0.35
67 | P325L | 1.12 ± 0.29
68 | P325M | 1.15 ± 0.14
69 | A141T | 0.967 ± 0.32
70 | R303W | 1.02 ± 0.018
71 | R303N | 1.04 ± 0.37
72 | D442F | -0.04 ± 0.047
73 | D442G | 1.08 ± 0.099
74 | P200G | 0.879 ± 0.49
75 | K120G | 1.12 ± 0.34
76 | K159M | 0.791 ± 0.066
77 | I211G | 0.694 ± 0.11
78 | R538L | 1.52 ± 0.052
79 | R538G | 0.544 ± 0.22
80 | P483F | 1.33 ± 0.075
81 | R8Q | -1.39 ± 0.14
82 | R92S | 0.275 ± 0.63
83 | S339C | 0.985 ± 0.18
84 | S411G | 0.952 ± 0.18

— the supplement of paper PMC12667976
